Where two headings read alike, the source gives them in different places. A value given as a limit tells only on which side of the number the result lay.

Among the data in patent US20200123228A1 are Kd and % of antibody released by plasmin digestion after buffer changes values, retold here.

In assay [1] the target is rmCTLA4 (mouse) (UniProt P09793). In words: ELISA. On the technique in general: An ELISA detects its analyte on a solid surface through an enzyme-linked reagent.
Assay [2] shares this target. Nature of the assay: ELISA. The source holds these as a separate data set.
The target is the same in assay [3]. In words: ELISA. The source holds these as a separate data set.
Assay [4] addresses Fibronectin (human) (UniProt P02751). In words: ELISA.
For assay [5], the target named is Collagen I (human) (UniProt P02452). In words: ELISA.
The target in assay [6] is bovine collagen (Symatese), polymerized gel (bovine). In words: retention on polymerized bovine collagen gel, antibody loaded at 10 µg/mL, released antibody measured by ELISA.

Sequence of rmCTLA4 (mouse) (P09793 36-162): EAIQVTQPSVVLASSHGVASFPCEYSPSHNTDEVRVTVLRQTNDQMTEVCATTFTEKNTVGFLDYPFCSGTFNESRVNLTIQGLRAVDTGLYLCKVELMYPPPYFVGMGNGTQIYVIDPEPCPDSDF
Sequence of Collagen I (human) (P02452 162-1218, chain 1 of 2): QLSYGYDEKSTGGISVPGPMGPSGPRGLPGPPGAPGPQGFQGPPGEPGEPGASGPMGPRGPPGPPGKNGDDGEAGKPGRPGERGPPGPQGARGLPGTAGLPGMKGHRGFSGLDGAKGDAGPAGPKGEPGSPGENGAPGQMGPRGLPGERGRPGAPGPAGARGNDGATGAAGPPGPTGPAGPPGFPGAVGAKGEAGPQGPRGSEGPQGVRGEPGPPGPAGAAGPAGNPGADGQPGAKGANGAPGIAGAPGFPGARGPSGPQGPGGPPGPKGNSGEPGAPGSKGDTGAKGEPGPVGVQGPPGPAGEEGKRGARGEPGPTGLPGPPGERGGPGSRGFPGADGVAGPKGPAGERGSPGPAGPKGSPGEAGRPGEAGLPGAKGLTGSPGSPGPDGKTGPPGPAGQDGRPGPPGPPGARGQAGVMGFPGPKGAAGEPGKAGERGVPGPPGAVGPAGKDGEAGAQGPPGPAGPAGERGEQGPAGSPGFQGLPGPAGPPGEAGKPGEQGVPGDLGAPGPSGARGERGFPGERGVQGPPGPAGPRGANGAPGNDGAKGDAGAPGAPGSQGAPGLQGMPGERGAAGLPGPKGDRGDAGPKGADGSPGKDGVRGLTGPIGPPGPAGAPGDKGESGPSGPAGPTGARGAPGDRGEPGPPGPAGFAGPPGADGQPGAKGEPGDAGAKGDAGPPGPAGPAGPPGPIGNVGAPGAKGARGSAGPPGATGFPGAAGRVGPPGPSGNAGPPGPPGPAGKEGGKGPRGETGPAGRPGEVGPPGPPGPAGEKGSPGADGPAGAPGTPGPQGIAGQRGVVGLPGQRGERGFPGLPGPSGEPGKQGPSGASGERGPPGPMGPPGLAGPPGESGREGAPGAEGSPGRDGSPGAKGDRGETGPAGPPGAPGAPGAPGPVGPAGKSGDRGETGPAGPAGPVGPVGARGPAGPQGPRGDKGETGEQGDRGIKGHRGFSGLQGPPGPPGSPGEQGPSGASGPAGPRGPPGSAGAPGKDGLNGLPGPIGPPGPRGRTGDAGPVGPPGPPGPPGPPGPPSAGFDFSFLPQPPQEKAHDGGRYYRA
Sequence of Collagen I (human) (P08123 80-1119, chain 2 of 2, further chain): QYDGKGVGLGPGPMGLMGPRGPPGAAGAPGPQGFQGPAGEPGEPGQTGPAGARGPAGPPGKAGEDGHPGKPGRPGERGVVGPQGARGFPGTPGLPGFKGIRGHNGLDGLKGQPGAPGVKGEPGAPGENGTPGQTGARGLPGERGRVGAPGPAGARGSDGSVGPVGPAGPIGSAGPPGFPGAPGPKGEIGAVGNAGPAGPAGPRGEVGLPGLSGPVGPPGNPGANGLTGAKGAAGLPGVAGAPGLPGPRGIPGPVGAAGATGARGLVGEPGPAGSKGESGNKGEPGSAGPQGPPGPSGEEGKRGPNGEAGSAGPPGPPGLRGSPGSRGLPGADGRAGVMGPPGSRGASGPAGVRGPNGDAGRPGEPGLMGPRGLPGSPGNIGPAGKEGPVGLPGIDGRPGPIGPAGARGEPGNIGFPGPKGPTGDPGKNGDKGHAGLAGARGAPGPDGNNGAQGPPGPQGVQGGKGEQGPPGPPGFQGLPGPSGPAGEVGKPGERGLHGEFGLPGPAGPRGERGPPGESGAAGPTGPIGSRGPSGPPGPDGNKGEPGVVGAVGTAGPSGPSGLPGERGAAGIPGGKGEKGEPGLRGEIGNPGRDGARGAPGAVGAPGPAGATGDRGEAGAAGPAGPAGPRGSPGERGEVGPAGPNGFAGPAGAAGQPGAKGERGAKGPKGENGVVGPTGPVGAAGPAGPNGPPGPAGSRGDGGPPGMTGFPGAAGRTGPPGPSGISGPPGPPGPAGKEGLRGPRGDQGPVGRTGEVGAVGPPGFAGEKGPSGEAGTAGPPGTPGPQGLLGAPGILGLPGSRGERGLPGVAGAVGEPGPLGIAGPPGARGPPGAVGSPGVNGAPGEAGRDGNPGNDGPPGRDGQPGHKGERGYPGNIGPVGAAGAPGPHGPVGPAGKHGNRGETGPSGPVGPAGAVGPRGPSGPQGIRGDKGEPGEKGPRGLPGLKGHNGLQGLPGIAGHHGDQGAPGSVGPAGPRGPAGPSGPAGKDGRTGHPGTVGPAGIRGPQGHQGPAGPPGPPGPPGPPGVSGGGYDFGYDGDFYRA
Sequence of Fibronectin (human) (P02751 32-2477): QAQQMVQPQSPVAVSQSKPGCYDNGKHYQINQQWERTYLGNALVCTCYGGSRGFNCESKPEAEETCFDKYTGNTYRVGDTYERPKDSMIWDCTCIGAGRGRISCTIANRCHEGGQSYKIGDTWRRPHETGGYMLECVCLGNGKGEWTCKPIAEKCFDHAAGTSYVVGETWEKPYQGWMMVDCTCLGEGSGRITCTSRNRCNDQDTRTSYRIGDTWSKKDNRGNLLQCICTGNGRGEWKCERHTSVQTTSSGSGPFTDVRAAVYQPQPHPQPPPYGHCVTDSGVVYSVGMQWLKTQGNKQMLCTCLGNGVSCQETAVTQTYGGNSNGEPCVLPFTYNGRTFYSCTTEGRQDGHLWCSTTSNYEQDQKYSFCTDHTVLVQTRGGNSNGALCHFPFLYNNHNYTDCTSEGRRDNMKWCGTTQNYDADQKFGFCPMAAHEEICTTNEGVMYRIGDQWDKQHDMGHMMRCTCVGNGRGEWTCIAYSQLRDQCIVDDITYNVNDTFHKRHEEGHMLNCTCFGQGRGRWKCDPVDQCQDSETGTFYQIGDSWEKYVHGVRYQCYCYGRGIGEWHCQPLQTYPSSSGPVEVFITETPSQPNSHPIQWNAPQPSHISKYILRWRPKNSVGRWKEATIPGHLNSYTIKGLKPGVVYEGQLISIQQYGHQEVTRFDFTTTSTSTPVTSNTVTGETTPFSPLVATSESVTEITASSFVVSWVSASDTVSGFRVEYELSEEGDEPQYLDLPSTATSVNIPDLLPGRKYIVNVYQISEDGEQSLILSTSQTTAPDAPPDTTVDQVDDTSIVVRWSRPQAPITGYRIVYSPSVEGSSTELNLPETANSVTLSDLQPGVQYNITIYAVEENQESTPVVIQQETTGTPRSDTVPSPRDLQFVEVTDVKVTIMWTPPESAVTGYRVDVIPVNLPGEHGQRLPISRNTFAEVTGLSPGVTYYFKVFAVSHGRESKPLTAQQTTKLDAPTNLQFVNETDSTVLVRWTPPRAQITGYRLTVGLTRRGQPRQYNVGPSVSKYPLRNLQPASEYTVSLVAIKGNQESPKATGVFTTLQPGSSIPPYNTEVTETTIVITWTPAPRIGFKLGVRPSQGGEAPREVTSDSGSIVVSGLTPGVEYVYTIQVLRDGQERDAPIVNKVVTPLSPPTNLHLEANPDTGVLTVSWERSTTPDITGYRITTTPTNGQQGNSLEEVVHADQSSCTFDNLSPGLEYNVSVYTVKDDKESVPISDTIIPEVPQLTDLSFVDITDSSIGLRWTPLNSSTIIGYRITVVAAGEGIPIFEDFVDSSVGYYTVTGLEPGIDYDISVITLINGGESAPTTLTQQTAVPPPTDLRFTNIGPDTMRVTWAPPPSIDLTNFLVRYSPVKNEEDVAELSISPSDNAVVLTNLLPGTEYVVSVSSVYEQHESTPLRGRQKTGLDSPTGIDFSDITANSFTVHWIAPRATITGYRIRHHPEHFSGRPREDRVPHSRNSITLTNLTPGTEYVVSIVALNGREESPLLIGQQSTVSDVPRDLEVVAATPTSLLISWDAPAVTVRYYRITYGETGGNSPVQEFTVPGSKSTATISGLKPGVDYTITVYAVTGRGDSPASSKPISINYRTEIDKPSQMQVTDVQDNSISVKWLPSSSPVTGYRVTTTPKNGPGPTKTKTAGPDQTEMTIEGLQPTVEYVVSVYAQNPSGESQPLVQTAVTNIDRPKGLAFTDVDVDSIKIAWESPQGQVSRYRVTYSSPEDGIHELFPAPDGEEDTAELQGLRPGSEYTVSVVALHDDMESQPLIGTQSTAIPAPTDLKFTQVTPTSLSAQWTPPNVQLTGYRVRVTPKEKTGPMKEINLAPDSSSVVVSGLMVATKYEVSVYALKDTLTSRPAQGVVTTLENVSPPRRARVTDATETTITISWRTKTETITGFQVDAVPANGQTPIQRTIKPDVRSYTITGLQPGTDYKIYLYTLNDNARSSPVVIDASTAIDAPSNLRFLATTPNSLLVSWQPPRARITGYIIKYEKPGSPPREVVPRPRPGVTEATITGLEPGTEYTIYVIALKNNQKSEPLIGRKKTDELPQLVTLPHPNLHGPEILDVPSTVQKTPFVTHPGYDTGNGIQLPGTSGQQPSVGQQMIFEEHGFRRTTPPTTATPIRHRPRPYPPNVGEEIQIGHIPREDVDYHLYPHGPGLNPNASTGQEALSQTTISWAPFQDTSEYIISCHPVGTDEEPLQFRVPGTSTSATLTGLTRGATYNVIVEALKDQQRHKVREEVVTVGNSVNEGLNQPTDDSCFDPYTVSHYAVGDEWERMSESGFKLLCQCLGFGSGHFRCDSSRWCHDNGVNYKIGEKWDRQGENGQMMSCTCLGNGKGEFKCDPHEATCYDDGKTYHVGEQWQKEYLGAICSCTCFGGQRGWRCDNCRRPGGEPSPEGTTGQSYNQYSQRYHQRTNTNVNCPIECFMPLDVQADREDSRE

In the case of 4F10, the Kd in assay [1] was determined as 0.1 nM; in assay [2], 0.101 nM.

The substance 9H10 registered a Kd in assay [2] of 15 nM.

On to PlGF-2123-144-4F10, for which the dissociation constant (Kd) in assay [3] stood at 0.157 nM; in assay [4], 4.7 nM; in assay [2] it was 0.16 nM; in assay [5], 26.7 nM.

PlGF-2123-144-9H10: the Kd in assay [4] stood at 0.87 nM; in assay [2], 5.7 nM; in assay [5], 1.3 nM.

For “rat anti-mouse PD-L1 (clone 10F.9G2), wild-type (antibody)”, the % of antibody released by plasmin digestion after buffer changes in assay [6] is less than 0.1%.

The Kd is the equilibrium constant for the complex coming apart. Read a high Kd as a looser complex.
